Measurements reported in PMC3852661 (2013).
Where no end group is shown, it is not given here. The star is where a group is joined. 5FAM = O=C1OC2(c3ccc(O)cc3Oc3cc(O)ccc32)c2ccc(C(=O)*)cc21

Experiments:
Assay in all cases: MST
MBP-SUFU-SH = MBP-SUFU-SH (human, UniProt Q9UMX1 32-278; Q9UMX1 361-483)
MBP-SUFU-FL = biological target: T1, MBP-SUFU-FL (human, UniProt Q9UMX1 32-483)
T1 chain: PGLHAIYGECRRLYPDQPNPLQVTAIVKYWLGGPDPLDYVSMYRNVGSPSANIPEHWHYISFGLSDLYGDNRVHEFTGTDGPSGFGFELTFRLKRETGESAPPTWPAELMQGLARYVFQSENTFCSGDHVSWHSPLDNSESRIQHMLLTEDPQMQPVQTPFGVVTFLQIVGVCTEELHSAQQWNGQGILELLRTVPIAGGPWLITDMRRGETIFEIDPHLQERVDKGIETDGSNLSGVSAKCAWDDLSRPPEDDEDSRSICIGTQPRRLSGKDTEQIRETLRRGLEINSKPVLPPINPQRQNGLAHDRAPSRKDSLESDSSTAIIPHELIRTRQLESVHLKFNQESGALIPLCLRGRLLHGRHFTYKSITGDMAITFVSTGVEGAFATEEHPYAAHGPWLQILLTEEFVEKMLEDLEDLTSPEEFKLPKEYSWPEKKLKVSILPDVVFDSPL

MBP-SUFU-Δ = biological target: T2, MBP-SUFU-Δ (human, UniProt Q9UMX1 32-278; Q9UMX1 361-483)
T2 chain: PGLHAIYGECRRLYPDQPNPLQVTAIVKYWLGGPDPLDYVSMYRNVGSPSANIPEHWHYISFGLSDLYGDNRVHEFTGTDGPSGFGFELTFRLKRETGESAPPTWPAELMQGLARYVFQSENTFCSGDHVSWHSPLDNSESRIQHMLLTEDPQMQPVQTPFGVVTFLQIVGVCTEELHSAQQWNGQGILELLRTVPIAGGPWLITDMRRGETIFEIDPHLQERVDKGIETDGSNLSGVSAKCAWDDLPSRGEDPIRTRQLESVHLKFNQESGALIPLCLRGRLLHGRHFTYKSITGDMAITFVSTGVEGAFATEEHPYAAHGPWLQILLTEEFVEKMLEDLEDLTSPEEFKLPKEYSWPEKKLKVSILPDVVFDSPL

Binder 5FAM-TSPGGSYGHLSIGTMSP [FAM-GLI1p] has a Kd (MBP-SUFU-SH) of 4.22 µM, a Kd (MBP-SUFU-FL) of 4.5 µM and a Kd (MBP-SUFU-Δ) of 4.47 µM.
